Reference: article PMC9029856, “Impact of Different [Tc(N)PNP]-Scaffolds on the Biological Properties of the Small cRGDfK Peptide: Synthesis, In Vitro and In Vivo Evaluations” (Molecules, 2022)
Several values for one entry are separate records, joined by “and”; a condition that tells them apart may be missing. Equal values may be shown once. Read-outs that look alike come from different tables or passages of the source.

Tests used:
[1] = test system: receptor-negative human melanoma M21L cells; assay: Cell uptake and internalization in M21L cells; type: cell-based; settings: negative M21L cell line, 37 °C, 90 min
Experimental: Cell uptake and internalization studies were performed on receptor-positive human melanoma M21 (expressing high levels of αvβ3 integrin and moderate level of integrin αvβ5), human breast cancer MCF7 (exclusively expressing αvβ5), and receptor-negative human melanoma M21L cell lines. The expression of αvβ3 and αvβ5 by cells was already evaluated by flow cytometry (Table 2). The stability of each radiolabeled peptide in the culture media before and after cell exposure was assessed.
Experiments were conducted in suspension at 37 °C. The working conditions were set up to avoid cell damage and/or death. With the use of these information, the cells were pre-incubated in sterile glass tubes at 37 °C for 10 min, in the presence or not of cRGDfK pentapeptide (50 µL; 1.65 mM).
Then, 1 mL of the cell suspension (1 × 10^6 cells/mL) was incubated with intermittent agitation with 10 µL (10 µCi) of ^99mTc1–3. At 90 min, the cells were moved in Eppendorf microcentrifuge tubes (1.5 mL) and the incubation was interrupted by centrifugation (3000 rpm for 5 min at 10 °C). The supernatant (S1) was separated from the pellet. The cell pellet was treated 10 min at room temperature with saline acetate buffer (CH3COOH 0.2M/NaCl 0.5 M) to remove the membrane-bound compound. After centrifugation (3000 rpm for 10 min at 10 °C), the supernatant (S2) was separated from the pellet (P1), and each fraction was collected, placed in a separated counting tube, and the activity was measured using a NaI counter (Cobra II, Packard) to estimate both the cell uptake and the internalized fraction.
The uptake of complexes was expressed as percentage cell uptake of the total activity on 10^6 cells (% cell uptake/10^6 cells).
All assessments were conducted in triplicate for three experiments.

[2] = set-up: species or system Sprague Dawley rats; settings: rat, in vivo, iv, 15 uCi/100 uL
Experimental: Pharmacokinetics and metabolism.
Female Sprague Dawley rats weighing 180–200 g were anesthetized with an intraperitoneal injection of a mixture of Zoletil (40 mg/kg) and xylazine (2 mg/kg). A jugular vein was surgically exposed, and the solution containing the radiolabeled peptide was injected (15 µCi/100 µL). The rats (n = 3) were scarified by cervical dislocation at different times after injection. The blood was withdrawn from the heart with a syringe immediately after death and quantified. Organs were excised, rinsed in saline, weighed, and the activity was counted in a NaI counter. The results were expressed as the percentage of injected activity per gram of tissue (%IA/g) to be able to compare our results with those reported in the literature.

[3] = test system: M21 (αvβ3-positive) and M21L (αvβ3-negative) melanoma tumors; type: in vivo, NSG mice; settings: 120 min p.i.; for M21L tumor uptake: integrin-negative M21L control tumor; for M21 tumor uptake: integrin-positive M21 xenograft; for Blood / Heart / Intestine / Kidneys / Liver / Lungs / Muscle / Spleen / Stomach: tumor-bearing mice
Experimental: In vivo tumor uptake. The in vivo integrin targeting properties of the [^99mTcN(PNP)]-labeled peptide were evaluated in M21 (integrin-positive) and M21L (integrin-negative) melanoma-bearing mice by comparing the percentage of tumor uptake of the three compounds in tumors and the respective target-to-non-target ratios. Biodistribution data outlined some differences in organ uptake compared with those attained in rats at the same injection time because the rate of metabolism is different in each animal species. […] The high renal uptake of radiotracers is partially due to their rate of excretion as well as to a specific uptake by integrins expression in the kidneys; for ^99mTc3, the M21-to-kidney ratio was 1.37.
Human melanoma M21(αvβ3-positive) were injected subcutaneously (s.c. 1 × 10^6 cells) in the right flank of six week-old male NSG mice (Charles River Laboratories). As a negative control, M21L (αvβ3-negative) were inoculated s.c. (1 × 10^6 cells) in the left flank of the same mice. Fifteen days after the inoculation, when the tumors are palpable (5–3 mm), the mice were injected in the tail vein with the selected radiolabeled peptide (20 µCi/100 µL of PBS). A group of six animals was sacrificed at 120 min p.i. by CO2 inhalation. A sample of blood was collected and tumors and normal tissues of interest were dissected, rinsed to remove the excess of blood, weighted, and their radioactivity measured using a NaI counter. Results are expressed as the percentage of injected activity per gram (% IA/g) and tumor-to-organ ratios were calculated.

Substance: [Tc(N)(H2NS-cRGDfK)(PNP3)]^+ [^99mTc1]
- cell uptake (sum of surface bound and internalized radioactivity) [1]: 1.77 ± 0.20 % cell uptake/10^6 cells
- Blood ([2]; 0.5 h): 0.81 ± 0.05 %IA/g
- Heart ([2]; 0.5 h): 0.26 ± 0.05 %IA/g
- Intestine ([2]; 0.5 h): 0.65 ± 0.16 %IA/g
- Kidneys ([2]; 0.5 h): 2.71 ± 0.18 %IA/g
- Liver ([2]; 0.5 h): 0.96 ± 0.10 %IA/g
- Lungs ([2]; 0.5 h): 0.64 ± 0.09 %IA/g
- Muscle ([2]; 0.5 h): 0.21 ± 0.09 %IA/g
- Spleen ([2]; 0.5 h): 0.65 ± 0.09 %IA/g
- Stomach ([2]; 0.5 h): 0.53 ± 0.07 %IA
- Urine ([2]; 0.5 h): 27.2 ± 11.7 %IA
- Blood ([2]; 1 h): 0.30 ± 0.04 %IA/g
- Heart ([2]; 1 h): 0.15 ± 0.01 %IA/g
- Intestine ([2]; 1 h): 0.60 ± 0.12 %IA/g
- Kidneys ([2]; 1 h): 1.57 ± 0.13 %IA/g
- Liver ([2]; 1 h): 0.75 ± 0.02 %IA/g
- Lungs ([2]; 1 h): 0.43 ± 0.01 %IA/g
- Muscle ([2]; 1 h): 0.13 ± 0.06 %IA/g
- Spleen ([2]; 1 h): 0.51 ± 0.04 %IA/g
- Stomach ([2]; 1 h): 0.41 ± 0.02 %IA
- Urine ([2]; 1 h): 33.1 ± 5.6 %IA
- Blood ([2]; 2 h): 0.09 ± 0.01 %IA/g
- Heart ([2]; 2 h): 0.10 ± 0.02 %IA/g
- Intestine ([2]; 2 h): 0.40 ± 0.07 %IA/g
- Kidneys ([2]; 2 h): 0.92 ± 0.20 %IA/g
- Liver ([2]; 2 h): 0.68 ± 0.06 %IA/g
- Lungs ([2]; 2 h): 0.25 ± 0.03 %IA/g
- Muscle ([2]; 2 h): 0.10 ± 0.06 %IA/g
- Spleen ([2]; 2 h): 0.47 ± 0.04 %IA/g
- Stomach ([2]; 2 h): 0.34 ± 0.04 %IA
- Urine ([2]; 2 h): 54.3 ± 1.9 %IA
- Blood ([2]; 4 h): 0.05 ± 0.01 %IA/g
- Heart ([2]; 4 h): 0.08 ± 0.01 %IA/g
- Intestine ([2]; 4 h): 0.38 ± 0.01 %IA/g
- Kidneys ([2]; 4 h): 0.88 ± 0.09 %IA/g
- Liver ([2]; 4 h): 0.66 ± 0.07 %IA/g
- Lungs ([2]; 4 h): 0.16 ± 0.04 %IA/g
- Muscle ([2]; 4 h): 0.06 ± 0.01 %IA/g
- Spleen ([2]; 4 h): 0.45 ± 0.00 %IA/g
- Stomach ([2]; 4 h): 0.29 ± 0.02 %IA
- Urine ([2]; 4 h): 55.9 ± 7.1 %IA
- M21/M21L ratio [3]: 1.83
- M21/blood ratio [3]: 29.96
- M21/kidneys ratio [3]: 0.77
- M21/liver ratio [3]: 0.88
- M21/lung ratio [3]: 2.53
- M21/muscle ratio [3]: 9.15
- M21L tumor uptake [3]: 1.73 ± 0.19 %IA/g
- M21 tumor uptake [3]: 3.2 ± 0.6 %IA/g and 3.17 ± 0.60 %IA/g
- Blood [3]: 0.07 ± 0.02 %IA/g
- Heart [3]: 0.47 ± 0.03 %IA/g
- Intestine [3]: 2.30 ± 0.10 %IA/g
- Kidneys [3]: 4.10 ± 0.37 %IA/g
- Liver [3]: 3.59 ± 0.31 %IA/g
- Lungs [3]: 1.25 ± 0.23 %IA/g
- Muscle [3]: 0.37 ± 0.04 %IA/g
- Spleen [3]: 1.61 ± 0.01 %IA/g
- Stomach [3]: 1.22 ± 0.15 %IA

Substance: [Tc(N)(H2NS-cRGDfK)(PNP3OH)]^+ [^99mTc3]
- cell uptake (sum of surface bound and internalized radioactivity) [1]: 1.73 ± 0.27 % cell uptake/10^6 cells
- Blood ([2]; 0.5 h): 0.46 ± 0.07 %IA/g
- Heart ([2]; 0.5 h): 0.25 ± 0.06 %IA/g
- Intestine ([2]; 0.5 h): 1.29 ± 0.13 %IA/g
- Kidneys ([2]; 0.5 h): 5.22 ± 0.44 %IA/g
- Liver ([2]; 0.5 h): 0.90 ± 0.09 %IA/g
- Lungs ([2]; 0.5 h): 0.62 ± 0.08 %IA/g
- Muscle ([2]; 0.5 h): 0.17 ± 0.01 %IA/g
- Spleen ([2]; 0.5 h): 0.43 ± 0.05 %IA/g
- Stomach ([2]; 0.5 h): 0.72 ± 0.04 %IA
- Urine ([2]; 0.5 h): 27.8 ± 5.6 %IA
- Blood ([2]; 1 h): 0.25 ± 0.03 %IA/g
- Heart ([2]; 1 h): 0.15 ± 0.00 %IA/g
- Intestine ([2]; 1 h): 1.95 ± 0.17 %IA/g
- Kidneys ([2]; 1 h): 4.83 ± 0.35 %IA/g
- Liver ([2]; 1 h): 0.80 ± 0.06 %IA/g
- Lungs ([2]; 1 h): 0.49 ± 0.01 %IA/g
- Muscle ([2]; 1 h): 0.13 ± 0.01 %IA/g
- Spleen ([2]; 1 h): 0.39 ± 0.04 %IA/g
- Stomach ([2]; 1 h): 0.64 ± 0.08 %IA
- Urine ([2]; 1 h): 31.2 ± 3.0 %IA
- Blood ([2]; 2 h): 0.16 ± 0.01 %IA/g
- Heart ([2]; 2 h): 0.13 ± 0.02 %IA/g
- Intestine ([2]; 2 h): 3.76 ± 0.27 %IA/g
- Kidneys ([2]; 2 h): 4.44 ± 0.32 %IA/g
- Liver ([2]; 2 h): 0.75 ± 0.09 %IA/g
- Lungs ([2]; 2 h): 0.37 ± 0.06 %IA/g
- Muscle ([2]; 2 h): 0.12 ± 0.00 %IA/g
- Spleen ([2]; 2 h): 0.36 ± 0.02 %IA/g
- Stomach ([2]; 2 h): 0.57 ± 0.03 %IA
- Urine ([2]; 2 h): 44.2 ± 10.9 %IA
- Blood ([2]; 4 h): 0.09 ± 0.01 %IA/g
- Heart ([2]; 4 h): 0.12 ± 0.03 %IA/g
- Intestine ([2]; 4 h): 4.17 ± 0.59 %IA/g
- Kidneys ([2]; 4 h): 4.22 ± 0.45 %IA/g
- Liver ([2]; 4 h): 0.67 ± 0.04 %IA/g
- Lungs ([2]; 4 h): 0.32 ± 0.02 %IA/g
- Muscle ([2]; 4 h): 0.08 ± 0.00 %IA/g
- Spleen ([2]; 4 h): 0.34 ± 0.04 %IA/g
- Stomach ([2]; 4 h): 0.46 ± 0.04 %IA
- Urine ([2]; 4 h): 30.2 ± 9.45 %IA
- M21/M21L ratio [3]: 5.60
- M21/blood ratio [3]: 73.42
- M21/kidneys ratio [3]: 1.23
- M21/liver ratio [3]: 1.11
- M21/lung ratio [3]: 2.98
- M21/muscle ratio [3]: 16.72
- M21L tumor uptake [3]: 0.70 ± 0.16 %IA/g
- M21 tumor uptake [3]: 3.9 ± 0.7 %IA/g and 3.92 ± 0.69 %IA/g
- Blood [3]: 0.05 ± 0.01 %IA/g
- Heart [3]: 0.44 ± 0.09 %IA/g
- Intestine [3]: 3.09 ± 0.62 %IA/g
- Kidneys [3]: 3.34 ± 0.18 %IA/g
- Liver [3]: 3.22 ± 0.24 %IA/g
- Lungs [3]: 1.32 ± 0.20 %IA/g
- Muscle [3]: 0.23 ± 0.03 %IA/g
- Spleen [3]: 1.43 ± 0.19 %IA/g
- Stomach [3]: 1.05 ± 0.14 %IA
